We go through 12 proteins from US20240013853A1 (University of Washington, published 2024).

Series [1] deals with the molecule itself. The series can be described thus: single particle cryoEM; self-association of protomers.
Description: The designs were relaxed into experimental cryoEM electron densities using Rosetta FastRelax and SetupForDensityScoring.
For some samples, multiple blots were applied in order to obtain the best particle density. All grids were blotted using a blot force of 0 and 5.5 second blot time at 100% humidity and 4° C. and plunge-frozen in liquid ethane using a Vitrobot™ Mark IV (FEI Thermo Scientific). All cryoEM grids were screened on a Glacios™ transmission electron microscope (FEI Thermo Scientific) operated at 200 kV and equipped with a Gatan K2 or K3 Summit direct detector. […] Movies were acquired in counting mode fractionated in 50 frames of 200 ms at 8.5 e-/pixel/sec for a total dose of ˜65e-/Å².
Series [2] deals with the molecule itself. In words: negative stain EM, 2D class averages and 3D maps; self-association of protomers (heptamer). As for the experimental part:
(§1) Next, we selected three designs: one C15 homo-pentamer (HALC5-15_262), one C18 homo-hexamer (HALC6-18_265) and one C33 homo-trimer (HALC3-33_343) for high-resolution single particle cryoEM characterization.
(§2) SEC fractions corresponding to the designs were concentrated in TBS prior to negative stain EM screening. Samples were then immediately diluted 5 to 150 times in TBS buffer (25 mM Tris, 100 mM NaCl, pH 8.0) depending on the concentration of the samples. A final volume of 5 μL was applied on negatively glow discharged, carbon-coated 400-mesh copper grids (01844-F, TedPella Inc.), then washed with Milli-Q Water and stained using 0.75% uranyl formate as previously described (44). Air-dried grids were then imaged on either a FEI Talos™ L120C TEM (FEI Thermo Scientific) equipped with a 4K×4K Gatan OneView™ camera at a magnification of 57,000× and pixel size of 2.5 Å. Micrographs collection was automated using EPU™ software (FEI Thermo Scientific) and were imported into CisTEM™ software (45) or cryoSPARC™ software (46, 47). CTF estimation was done with CTFFIND4 and a circular blob picker was used to select particles which were then subjected to 2D classification. Ab initio reconstruction and homogeneous refinement in Cn symmetry were used to generate 3D electron density maps. All EM maps can be found in supplementary data.

Series [3] deals with the molecule itself. In words: X-ray crystallography; self-association of protomers (homo-dimer). As for the experimental part: (§3) 19 designs were chosen to undergo crystallization screens. Each design was expressed as described above in 0.5 L cultures. […] Following SEC, 2 mM of NiCl₂ was added and the solution was incubated overnight at 37° C. Following cleavage, the solutions containing the cleaved protein products were incubated with 1 mL Ni-NTA resin to bind any uncleaved product, and the flow through was collected. Following SEC into Crystallization buffer (20 mM Tris, 50 mM NaCl, pH 8.0), each sample was concentrated to approximately 15 mg mL⁻¹. The following sitting drop broad screens were set up at room temperature with three protein:crystallization condition ratios (1:1, 1:2, 2:1) using the mosquito pipetting instrument (sptlabtech): Midas™ (Molecular Dimensions), Proplex™ (Molecular Dimensions), JCSG+™ (Molecular Dimensions), Morpheus™ (Molecular Dimensions), Pact Premier™ (Molecular Dimensions), LMB™ (Molecular Dimensions), Index™ (Hampton Research) and PGA™ (Molecular Dimensions). Each was monitored weekly for crystal growth using the JANSi UVEX imaging system.
Where required, crystals were cryoprotected with 20% glycerol or 25% ethylene glycol prior to flash freezing in liquid nitrogen. Data collection was done using the Advanced Photon Source synchrotron. Images were integrated using XDS 20220110 (37). Aimless (38) was used for scaling and merging. […]

Series [4] concerns the molecule itself. The series can be described thus: negative stain EM, 2D class averages and 3D maps; self-association of protomers (hexamer). As for the experimental part:
as §1, §2

Series [5] deals with the molecule itself. The series can be described thus: X-ray crystal structure; self-association of protomers. As for the experimental part: as §3
Where required, crystals were cryoprotected with 20% glycerol or 25% ethylene glycol prior to flash freezing in liquid nitrogen. Data collection was done using the Advanced Photon Source synchrotron. Images were integrated using XDS 20220110 (37). Aimless (38) was used for scaling and merging. Phaser™ 2.8 (39) was used for molecular replacement using the design models as search models (either monomer or oligomeric complex). Models were built using Coot 0.9.8 (40) and refined with Phenix ™ refine from Phenix™ 1.20 (41) and RefMac™ (42) from CCP4 7.1 (38) suite. All structures were validated using MolProbity™ 4.5.1(43).

Series [6] concerns the molecule itself. The series can be described thus: negative stain EM, 2D class averages and 3D maps; self-association of protomers (pentamer). The method, then: as §1, §2

B1: HALC15-5_262 (other)
chain: DVPLTDPKNLNEFLYALGEGLKGMKNLKKLTLTFPSNPLTIPGDISEGFRELGEGLKGMKNLEELTVTFNDVPLTDPKNLNEFLYALGEGLKGMKNLKKLTLTFPSNPLTIPGDISEGFRELGEGLKGMKNLEELTVTFNDVPLTDPKNLNEFLYALGEGLKGMKNLKKLTLTFPSNPLTIPGDISEGFRELGEGLKGMKNLEELTVTFN
notes: De novo designed protomer; pair is protomer with identical protomer (C15 internal symmetry, homo-pentamer); also called HALC5-15_262; HALC5-15 262; not shown: C-terminal His tag
For B1, the binding result in series [1] was “binds”.

B2: HALC33-3_343 (other)
chain: PSNWPEVAKYFDLGKALKPIGEGLQNLKNLKHLDLSFSFSLELYPGLPSNWPEVAKYFDLGKALKPIGEGLQNLKNLKHLDLSFSFSLELYPGLPSNWPEVAKYFDLGKALKPIGEGLQNLKNLKHLDLSFSFSLELYPGLPSNWPEVAKYFDLGKALKPIGEGLQNLKNLKHLDLSFSFSLELYPGLPSNWPEVAKYFDLGKALKPIGEGLQNLKNLKHLDLSFSFSLELYPGLPSNWPEVAKYFDLGKALKPIGEGLQNLKNLKHLDLSFSFSLELYPGLPSNWPEVAKYFDLGKALKPIGEGLQNLKNLKHLDLSFSFSLELYPGLPSNWPEVAKYFDLGKALKPIGEGLQNLKNLKHLDLSFSFSLELYPGLPSNWPEVAKYFDLGKALKPIGEGLQNLKNLKHLDLSFSFSLELYPGLPSNWPEVAKYFDLGKALKPIGEGLQNLKNLKHLDLSFSFSLELYPGLPSNWPEVAKYFDLGKALKPIGEGLQNLKNLKHLDLSFSFSLELYPGL
notes: De novo designed protomer; pair is protomer with identical protomer (C33 internal symmetry, homo-trimer); not shown: C-terminal His tag
B2: the binding result in series [1] is “binds”.

B3: HALC42-7_351 (other)
chain: PSLTLNDFGDLGKGLGEGLQGMENLEKLQLTITLKLTVSTPSLTLNDFGDLGKGLGEGLQGMENLEKLQLTITLKLTVSTPSLTLNDFGDLGKGLGEGLQGMENLEKLQLTITLKLTVSTPSLTLNDFGDLGKGLGEGLQGMENLEKLQLTITLKLTVSTPSLTLNDFGDLGKGLGEGLQGMENLEKLQLTITLKLTVSTPSLTLNDFGDLGKGLGEGLQGMENLEKLQLTITLKLTVST
notes: De novo designed protomer; pair is protomer with identical protomer (C42 internal symmetry, homo-heptamer); not shown: C-terminal His tag
In the case of B3, in series [2], the binding result is listed as “binds”.

B4: HALC2_062 (other)
chain: MARVEYSYEKLNDTHYKLKLKVTYEYRKSPEARRLAEDLVQAFVDALSSLPFITVEYEVEEVEVE
notes: De novo designed protomer; the entry is one protomer and the pair is protomer with identical protomer (C2 homo-dimer)
B4: in series [3], the binding result is “binds”.

B5: HALC24-6_316 (other)
chain: SKEKLGIQQDLFEGIIATLLSHKDPRVLYLMVTILKLTGSSPSKEKLGIQQDLFEGIIATLLSHKDPRVLYLMVTILKLTGSSPSKEKLGIQQDLFEGIIATLLSHKDPRVLYLMVTILKLTGSSPSKEKLGIQQDLFEGIIATLLSHKDPRVLYLMVTILKLTGSSP
notes: De novo designed protomer; pair is protomer with identical protomer (C24 internal symmetry, homo-hexamer); not shown: C-terminal His tag
Consider B5, for which the binding result in series [4] is given as “binds”.

B6: HALC3_104 (other)
chain: KRIDEIESKLKHLEEFTTHLIKLMETMLELLKLVSDGKSDSEEYKELLEKAEEYLKQATEAAKKI
notes: De novo designed protomer; pair is protomer with identical protomer (C3 homo-trimer)
Turning to B6, the binding result in series [5] is given as “binds”.

B7: HALC6_220 (other)
chain: PPIPPPSFKLEISPAFLELVQLVIDLHPNDEEVRKELIENLISRIGKSDNVPPETISLDISEAALELFEWIFEKFPDDEDVHRRLIESFINKRKFSSSSPLDTPSLDISERFIELVKYILEKYPEDEEIKQKLIDSLLNLLGSY
notes: De novo designed protomer; pair is protomer with identical protomer (C6 homo-hexamer); not shown: C-terminal His tag
On to B7, for which the binding result in series [4] is “binds”.

B8: HALC3_109 (other)
chain: REEIEEAVKEAELKVLAIVLVALRSVSHYEPLSRLYESFLDALKKALSEEELKEVEKEAERIEKK
notes: as for B6
Turning to B8, the binding result in series [5] is “binds”.

B9: HALC20-5_308 (other)
chain: SLGWKVLLHLDLTWYPGADYTIDHDDMTRAARALAHGFERAAHSFAEAIGSTGSLGWKVLLHLDLTWYPGADYTIDHDDMTRAARALAHGFERAAHSFAEAIGSTGSLGWKVLLHLDLTWYPGADYTIDHDDMTRAARALAHGFERAAHSFAEAIGSTGSLGWKVLLHLDLTWYPGADYTIDHDDMTRAARALAHGFERAAHSFAEAIGSTG
notes: De novo designed protomer; pair is protomer with identical protomer (C20 internal symmetry, homo-pentamer); not shown: C-terminal His tag
Consider B9, for which the binding result in series [6] was “binds”.

B10: HALC2_068 (other)
chain: MIKVPEDLERIGRELRARGLDTKRLLEEGPKLYPELSIPDLMAIALYDHLNLDPEFLYRLLQQSR
notes: De novo designed protomer; pair is protomer with identical protomer (C2 homo-dimer)
Regarding B10, the binding result in series [5] is on record as “binds”.

B11: HALC25-5_341 (other)
chain: EGAAIAENLATAYQGIGETLPSLQDLRVLHLSVIFSAEGSSPEGAAIAENLATAYQGIGETLPSLQDLRVLHLSVIFSAEGSSPEGAAIAENLATAYQGIGETLPSLQDLRVLHLSVIFSAEGSSPEGAAIAENLATAYQGIGETLPSLQDLRVLHLSVIFSAEGSSPEGAAIAENLATAYQGIGETLPSLQDLRVLHLSVIFSAEGSSP
notes: De novo designed protomer; pair is protomer with identical protomer (C25 internal symmetry, homo-pentamer); not shown: C-terminal His tag
B11: the binding result in series [6] is reported as “binds”.

B12: HALC4_135 (other)
chain: MEKFKEQLLEEVKKIVLETMTKVMEHLEKWFVTLAEIIITKSEEKLEELKETMEKSIEELRKEAE
notes: De novo designed protomer; pair is protomer with identical protomer (C4 homo-tetramer)
As for B12, the binding result in series [5] is recorded as “binds”.
